Assay results reported in the nanobody polyreactivity screen of Harvey et al. (2022).

Assay: yeast display, Sf9 membrane polyspecificity reagent, FACS + sequencing; frameworks hold sequencing errors
Method in brief: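 A nanobody's polyreactivity label depends on the gate it was sorted from. Yeast display cells were stained with 10% biotinylated, detergent-solubilized Sf9 membrane reagent for 1 hour at 4 °C, enriched on streptavidin microbeads and sorted by FACS. The low and high (top ~1%) gates were set on anti-HA fluorescence for expression and streptavidin fluorescence for reagent binding.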

Sequence: QVQLVESGGGLVQAGGSLRLSCAASGNIFYINTMGWYRQAPGKERELVAAIDASDGSTYYADSVKGRFTISRDNAKNSVYLQMYSLKPEDTAVYYCASRRGYDSVYYFYTLWYYYWGQGTQVTVSS
- polyreactivity (PSR sort gate): low polyreactivity

Sequence: QVQLVESGGGLVQAGGSLRLSCAASGNIFYQYAMGWYRQAPGKDREFVAAISISGTSTYADSVKGRFTISRDNAKNTVYLQMNSLKPEDTAVYWGQGTQVTVSS
- polyreactivity (PSR sort gate): low polyreactivity

Sequence: QVQLVESGGGLVQAGGSLRLSCAASGNIFYRYAMGWYRQAPGKERELVAAISGNSGNTYYADSVKGRFTISRDIAKNTVYLQMNSLKPEDTAVYYCAAERRAFGHYSWGQGTQVTVSS
- polyreactivity (PSR sort gate): high polyreactivity

Sequence: QVQLVESGGGLVQAGGSLRLSCAASGNIFYVYAMGWYRQAPGKERELVATITWRGGNTYYADSVKGRFTISRDNAKNTVDLQMNSLTPEDTAVYYCAAYVGYTRAYIGQFYAYDYWGQGTQVTVSS
- polyreactivity (PSR sort gate): low polyreactivity

Sequence: QVQLVESGGGLVQAGGSLRLSCAASGNILASNGMGLYRQAPGKERELVAAITYSGGSTYYADSVKGRFTISRDNAKNTVYLQMNSLKPEDTAVYDCAARYYYGRRYDYWGQGTQVTVSS
- polyreactivity (PSR sort gate): low polyreactivity

Sequence: QVQLVESGGGLVQAGGSLRLSCAASGNILAWYAMGWYRQAPGKERELVADISSRGGSTYYADSVKRRFTISRDNAKYTVYLQMKSLKPEDTAVYYCAAVWYWNQDYEYWGQGTQVTVSS
- polyreactivity (PSR sort gate): low polyreactivity

Sequence: QVQLVESGGGLVQAGGSLRLSCAASGNILHYYTMGLYRQAPGKETELVARINYSTGSTYYADSVKGRFTISRDNAKNTVYLQMNSLKPEDTAVYYCAAEKERDEEYDYWGQGTQVTVSS
- polyreactivity (PSR sort gate): low polyreactivity

Sequence: QVQLVESGGGLVQAGGSLRLSCAASGNILIGNVMGWYRQAPGKERELVAAITSGGDTYYADSVKGRFTISRDNAKNTVYLQMNSLKPEDTAVYYCNAYYYFWGQGTQVTVSS
- polyreactivity (PSR sort gate): low polyreactivity

Sequence: QVQLVESGGGLVQAGGSLRLSCAASGNILRYAMGWYRQAPGKERELVARISWRGGSTYYADSVKGRFTISRDNAKNTVYLQMNSLKPEDTAVYYCNKAYLGGGWQKTYDYWGQGTQVTVSS
- polyreactivity (PSR sort gate): high polyreactivity

Sequence: QVQLVESGGGLVQAGGSLRLSCAASGNILYANAMGWYRQAPGKERELVATINVSADSTYADSVKGRFTISRDNAKNTVYLQMNRLNPEDTAVYYCNAYGLYEKWGPWTVPYYYWGQVTQVTVSS
- polyreactivity (PSR sort gate): low polyreactivity

Sequence: QVQLVESGGGLVQAGGSLRLSCAASGNILYDNAMGSYRQAPGKERELVAAIDWSGGSTYYADSVKGRFTISRDNAKNTVYLQMNSLKPEDTAVYYCAAESYIGKYGSYDYWGLGTQVTVSS
- polyreactivity (PSR sort gate): low polyreactivity

Sequence: QVQLVESGGGLVQAGGSLRLSCAASGNILYFYDMGRYRQAPGKERELVAVITGGGGSTYYADSVKGRYTISRDNAKNTVYLQMNRLKPEDTAVYYWAALPWFPDEEYDYWGHGTQVTVSS
- polyreactivity (PSR sort gate): high polyreactivity

Sequence: QVQLVESGGGLVQAGGSLRLSCAASGNISWYNAMGWYRQAPGKERELVAAITSSGSGTYYADSVKGRFTISRDNAKHTVYLQMNSLKPEDTAVYYCIADNAIRYDYWGQGTQVTVSS
- polyreactivity (PSR sort gate): high polyreactivity

Sequence: QVQLVESGGGLVQAGGSLRLSCAASGNIVGSNAMGWYRQAPGKERELVAAISKSGGRTYYADSVKGRFTISRDNAKNTVYLQMNSLKPEDTAVYYCAAYDGYYEFDYWGQGTQVTVSS
- polyreactivity (PSR sort gate): low polyreactivity

Sequence: QVQLVESGGGLVQAGGSLRLSCAASGNIYRYYVMGWYRQAPGKEREFVAAITSSGGSTYYADSVKGRFTISRDNAKNTVYLQMNSLKPEDTAVFYCAKDYGDPGWAEYDYWGQGTQVTVSS
- polyreactivity (PSR sort gate): low polyreactivity

Sequence: QVQLVESGGGLVQAGGSLRLSCAASGNMFGYYAMGWYRQAPGKERELVARITSGGTTNYADSVKGRFTISRDNAKNTVYLQMNRLKPEDTAVYYCNKDWRRYWLRGDYWGQGTQVTVSS
- polyreactivity (PSR sort gate): low polyreactivity

Sequence: QVQLVESGGGLVQAGGSLRLSCAASGNNFGNNAMGWYRQAPGKERELVAAISSSGTSTYYADSVKGRFTISRDNAKNTVYLQMNSLKPEDTSVYYCNADPLPYDGYYDYDYWGQGTEVTVSS
- polyreactivity (PSR sort gate): low polyreactivity

Sequence: QVQLVESGGGLVQAGGSLRLSCAASGNSFYFYAMGWYRQAPGKERELVAAIDLTDGSTYYADSVKGRFTISRDNAKNTVYLQMNSLKPEDTAVYYCAADWVTFYSYTEYDYWGLGTQVTVSS
- polyreactivity (PSR sort gate): low polyreactivity

Sequence: QVQLVESGGGLVQAGGSLRLSCAASGNSFYSYAMGRYRQAPGKERELVAAITIDGSTTYADSVKGRFTISRDNAKNTVYLQMNSLKPEDTAVSYCNADGFTSDPYDSDDWGQGTLVTVSS
- polyreactivity (PSR sort gate): low polyreactivity

Sequence: QVQLVESGGGLVQAGGSLRLSCAASGNTFAYNTMGWYRQAPGKERELVAAIRTRGGSTYYADSVKGRFTISRDNAKNTVYLQMNSLKPEDTAVYYCAADYRYHGYWSYDYWGQGTQVTVSS
- polyreactivity (PSR sort gate): low polyreactivity

Sequence: QVQLVESGGGLVQAGGSLRLSCAASGNTFDGYDMGWYRQAPGKERELVAAITNTGASTYYADSVKGRFTISRDNAKNTVYLQMNSLKPEDTAVYYCNAQDSYPEDRHGMSYWGQGTQVTVSS
- polyreactivity (PSR sort gate): low polyreactivity
